Series [1] deals with c-Jun (unmodified). As to the kind of experiment: thermal melting curve, mixture (FIG. 4).
Series [2] has as its target c-Jun (unmodified). As to the kind of experiment: from thermal melts, Kd at 37 °C (FIG. 4).
Series [3] deals with T1, CREB (unmodified).
T1 construct: also called unmodified CREB
T1 sequence (chain, from a related filing, looked up): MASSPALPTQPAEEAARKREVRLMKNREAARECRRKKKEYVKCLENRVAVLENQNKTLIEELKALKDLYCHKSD
Kind of series: thermal melting curve, mixture (FIG. 3).

Series [4] concerns the molecule itself. Kind of series: CD thermal melt, homodimer, 150 mM KCl.
Series [5] deals with the molecule itself. As to the kind of experiment: homodimer, study of FIG. 9 (method not given).

Sequence of c-Jun (unmodified) (chain, from a related filing, as listed by the source): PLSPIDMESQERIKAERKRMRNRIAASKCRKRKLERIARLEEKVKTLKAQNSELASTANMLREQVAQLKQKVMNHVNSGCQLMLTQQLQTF

B1: 4heptad-Fos (c-Fos with the basic region replaced by four acidic heptad repeats) (designed binder)
chain: MASMTGGQQMGRDPDLEQRAEELARENEELEKEAEELEQENAELEAETDQLEDEKSALQTEIANLLKEKEKLEFILAAHRPACKIP
notes: How the two entries relate is not explained; also called aFos; aZIP 4heptadFos
In the case of B1, the Tm – broadly, the temperature at the midpoint of the melting transition – in series [1] was determined as 61 °C. Further, in series [2], binding was characterised by a dissociation constant (Kd) of 6 nM.

B2: 4heptadCREB (CREB with 4 heptad repeats appended at the amino terminus) (designed binder)
chain: ASMTGGQQMGRDPDLEQRAEELARENEELEKEAEELEQENAELENRVAVLENQNKTLIEELKALKDLYCHKSD
notes: also called 4hep-CREB
Consider B2, for which the Tm in series [3] was 53 °C.

B3: 0heptad-F (F zipper with the basic region deleted) (designed binder)
chain: ASMTGGQQMGRDPGGGTQQEVLELESRNDRLRKEVEQLERELDTLRGIFRQLPESSLVKAMGNCA
notes: expressed in E. coli; also called 0heptad-F (H); heterodimerizing zipper
For B3, the “delta G at 25 °C” value in series [4] was -8 kcal/mol.

B4: 0heptadMax (dimerization domain of Max without an acidic extension) (other)
chain: ASMTGGQQMGRDPDLEELEDSFHSLRDSVPSLQGEKASRAQILDKATEYIQYMRRKNHTHQQDIDDLKRQNALLEQQVRALEKARSSAQLQT
Take B4: the Kd (as a rule, the constant that tells how readily two partners part at equilibrium) in series [5] was determined as 100 nM.

Values taken from US20030027314A1 (published 2003).
